Columns and labels:
Assay in all cases: other fluorescence titration
[1] = target: FlAsH-labeled wild-type collybistin (CB) FRET sensor F1DA (rat)
[2] = target: FlAsH-labeled collybistin FRET sensor F99DA (rat)
[3] = target: FlAsH-labeled single-mutant (E262A) open-state collybistin FRET sensor F1smDA (rat)
[4] = target: FlAsH-labeled collybistin FRET sensor F73DA (rat)
[5] = target: FlAsH-labeled double-mutant (W24A/E262A) open-state collybistin FRET sensor F1dmDA (rat)
[6] = target: FlAsH-labeled collybistin FRET sensor F28DA (rat)

Substance | Kd [1] [µM] | species-weighted average fluorescence lifetime of CFP in the sensor with ligand [1] [ns] | species-weighted average fluorescence lifetime of CFP in the sensor with ligand [2] [ns] | Kd [3] [µM] | species-weighted average fluorescence lifetime of CFP in the sensor with ligand [3] [ns] | species-weighted average fluorescence lifetime of CFP in the sensor with ligand [4] [ns] | Kd [5] [µM] | species-weighted average fluorescence lifetime of CFP in the sensor with ligand [5] [ns] | species-weighted average fluorescence lifetime of CFP in the sensor with ligand [6] [ns]
gephyrin linker followed by the E domain (GephLE) (domain or fragment) | 6.4 | 1.54 | – | – | – | – | – | – | –
free SH3 domain of collybistin (domain or fragment) | 373 | 1.44 | – | – | – | – | – | – | –
isolated gephyrin E domain (GephE) (domain or fragment) | 6.3 | 1.36 | – | – | – | – | – | – | –
intracellular cytosolic domain of neuroligin 2 (NL2icd) (from UniProt Q62888 700-836) (domain or fragment) | – | 1.37 | – | – | – | – | – | – | –
full-length gephyrin (GephFL) (from UniProt Q03555 1-768) (natural protein) | 4.5 | 1.56 | 1.2 | 47 | 0.62 | 1.03 | 43 | 0.64 | 1.4
